Data: the DeepSol protein solubility set

Test: soluble on expression in E. coli; label from the status in PepcDB or PDB records

Row | Sequence | soluble on expression in E. coli
1 | PATDIMFPHSSMELVEGIYKHNQVADYFNKVLADTLLAYLDERLKHDPEASIRIMEIGAGTGGTSAGIFEKLKPYQKHINEYCYTDLSKAFLLHAEKEYGAENPYLTYQLFDVEKPIDQQEFEAGGYDVVIAANVLHATKNIRQTLRHTKAVMKNNGMLLLNEMAGNSLFPHITFGLLEGWWLYEDPAVRIPGCPGLHPDSWKAALESEGFESVFF | not soluble
2 | MKTFPLQSLTLAEAQQKQFALVDTICRHFPGSEFLAGGDLGLTPSLNQPRITQRVEQVLADAFHAQAAALVQGAGTGAIRAGLAALLKPGQRLLVHDAPVYPTTRVIIEQMGLTLITADFNDLSALKQVVDEQQPDAALVQHTRQQPQDSYVLADVLATLRAAGVPALTDDNYAVMKVARIGCECGANVSTFSCFKLFGPEGVGAVVGDADVISRIRATLYSGGSQIQGSQALEVLRGLVFAPLIHAVKAGVSERLLALLNGGAVAEVKSAVIANAQSKVLIVEFHQLIAARVLEEAQKRGALPYPVGAESKYEIPPLFYRLSGTFRQANPQLEHCAIRINPNRSGEETVLRILRESIASI | not soluble
3 | MKTYEVGALLEAANQRDTKKVKEILQDTTYQVDEVDTEGNTPLNIAVHNNDIEIAKALIDRGADINLQNSISDSPYLYAGAQGRTEILAYMLKHATPDLNKHNRYGGNALIPAAEKGHIDNVKLLLEDGREDIDFQNDFGYTALIEAVGLREGNQLYQDIVKLLMENGADQSIKDNSGRTAMDYANQKGYTEISKILAQYN | soluble
4 | MNDQELRAYLSQAKTIAVLGAHKDPSRPAHYVPRYLREQGYRVLPVNPRFQGEELFGEEAVASLLDLKEPVDILDVFRPPSALMDHLPEVLALRPGLVWLQSGIRHPEFEKALKEAGIPVVADRCLMVEHKRLFRGPLPL | soluble
5 | MSELDTVIKNAEEIAIQEDEEIIEEVIEEEQVPWLGPTDVMEGQGEYYQSEELLEHEMVEYEDAEPYQSFLPIRDGAPYFSLNLPDLLSKAHQITQDTGVIVRLTSCFNKKCQRQVACGGCLYTIKDYVSDIQWNNWTCINPQCFGEIRTTPDFRDIREVHGHTANCPPPDEIQIAVRIAVYDTRLLAEFTDTPLENLYFGAVERLKIDCADGFVLFPPFEVVKSTLEDHRHNKIYRKRFEMQNLRDKQRKMNMTPDEVVFAENTSGMIRFRRTKPFPMSICNVCGEEISSTNLPSQDQLISHYMYTHGRRMTIERYEFKDVNTFEQYLRELNSMGKYKFKRMGLADENMFYLCSHDDRLNKTGIGRATRLQQQSCHCTAFIRVFDWRVRWKLNNLNYEQITKKSDIYTFNAVCKVEDMCMSLLNRLQDCQNPRVALGYREKIAAIVRKSTTDPGLCDEKSVEEIEKSWVLQKPIRGRPRKRVKLENGQEDGGGDLDEDDDVVMDDYEDGEENGDKKITASRRSESPKPASSSSEPPPPSTTEEASTSLADELPRVTREESTSSNTSGHVAGDVTTRSGRARKPPARLLDD | not soluble
6 | MADPPPNPSSVPPNGNLTGTPSAGNAAAVAPMAHEKDRQSKEGDEIVTKSGKKYKLGPVLGEGGYGTVFLSQDDDIKIAVIAVSCFPYIIVQNEVWFKEQKKHHVIHVVHNFSSKLLVNTTKYSRSSTVMRFNLHLITRKSTNYLWRLEKNANFVIVKTGIGKMKQSRPLSPQSLHSLIKNFAPRLTNSQKRRVLVLIFLISWSPISLPFLCTSISHHELIGINVLIKKIYVLQYFLNI | not soluble
7 | MNAMERENTVKSVRRALQIIEIVSTKKDGLGVTEIAKQMDINKSSVYRILTTLAQYGYIEQHPETERYKLGYKFLELSSKLLDSIDLRQEAKPYLRELEKETNEVIHLVVYDQGEVIYIEKLEGTETLRMHSKVGKRAPMHCTAVGKAILAHLPPAVAAEIIDRKGLPKHTDWTITDREAFFRELETVRQNGYALDLEENEYGIRCVAVPIFDYTGGVVAAISVSGPTIRMTDDRITSLTVRMRQIGKELSARLGYRGAHSVQL | soluble
8 | MMLNAWHLPVPPFVKQSKDQLLITLWLTGEDPPQRIMLRTEHDNEEMSVPMHKQRSQPQPGVTAWRAAIDLSSGQPRRRYSFKLLWHDRQRWFTPQGFSRMPPARLEQFAVDVPDIGPQWAADQIFYQIFPDRFARSLPREAEQDHVYYHHAAGQEIILRDWDEPVTAQAGGSTFYGGDLDGISEKLPYLKKLGVTALYLNPVFKAPSVHKYDTEDYRHVDPQFGGDGALLRLRHNTQQLGMRLVLDGVFNHSGDSHAWFDRHNRGTGGACHNPESPWRDWYSFSDDGTALDWLGYASLPKLDYQSESLVNEIYRGEDSIVRHWLKAPWNMDGWRLDVVHMLGEAGGARNNMQHVAGITEAAKETQPEAYIVGEHFGDARQWLQADVEDAAMNYRGFTFPLWGFLANTDISYDPQQIDAQTCMAWMDNYRAGLSHQQQLRMFNQLDSHDTARFKTLLGRDIARLPLAVVWLFTWPGVPCIYYGDEVGLDGKNDPFCRKPFPWQVEKQDTALFALYQRMIALRKKSQALRHGGCQVLYAEDNVVVFVRVLNQQRVLVAINRGEACEVVLPASPFLNAVQWQCKEGHGQLTDGILALPAISATVWMN | soluble
9 | MSLGIENDRKLVVNCLPLTEAERAQFTRAAKGMPQEFVGDPAQRGSMNWTAEIPDELKAYATAVIGNITPETCAQCPRLEWLQTWSAGVDKYQHPGILQPGSMLTNATGAYGQSVSEHMFAMMWAIMKNLHIYAVGNPNAAWQDAGRVISPDGKTALIIGTGDIGSHFARLCKSVGMSTIGIRRNPTVEAPGIDHMVGFESLDDVLQYADVIAMCVPSTPSTHHLLNAERIAKLKTDATVINAGRGDAIDTQALADALANGMIRGAGLDVTEPEPLPAASPLWSEPKCLITPHVAGGNHLESTERRIIAIALGNVRCYANGQSLDNRMPLKGEGHHHHHH | soluble
10 | LGECLADLAVDALIDEAELSPKPALVDRRGNGAHADLHLGLMQASALSLWPCFKEMADAAQRHGRIDARLRGVLGQLGRDGEAAMLRTTEGVNTHRGAIWALGLLVAAAALEPRRTQAGEVAARAGRIALLDDPAAAIGDSHGERVRRRYGVGGAREEARLCFPRAVRHGLPQLWRSREGGAGEQNARLDALLAIMSVLDDTCVLHRAGRVGLAAMQDGARAVLAAGGSASLAGRRRLCELDRRLLALNASPGGAADLLAACLFLDRLPAVSGGWAGSL | not soluble
11 | MGNQQCNWYGTLYPLCVTTTNGWGWEDQRSCIARSTCAAQPAPFGIVGSG | soluble
12 | SSEQTLEYFLNKGTIRRKDAADIEWYHAANSKSKLMEALRGSAQMIEADVLLRGADPEEPIMAHPPAKDSDITLQDWLKEVVKTDKGIKLDFKSLAAVSQSMSLLEEIRDQLKGPVWINADILPGPGGTATPVDPHVFLQEVAQRSENDVLSLGWTTGWTANVDNPGYSWEMVHQMEELCRPLKQPVTFPVRASLLPMSFPQFQWLLEQSDRSEILH | soluble
13 | MKRLLFLGVDVGGTKTLAVLSDEQGNVLAIYKGKGANYQVVGKENAVRNLKDVIEAILDRAGKTRKEIDFAFFGYAGADFDYEMKIVREILEKLGLEKFDFDNDGRIALRSGVFDDIGIMVSCGTGSISYASDGRRVNRIGGLSFSLGERLGSHYIASLVTSAVMRAKDGRDDWTTLVDEVEKEIGPVENLLRYDYEGGYTAELVKKVNQALFRCAEKGDAVSLRIFDEIVVEVKKIIDAHRKALNFTPPIKLILEGSFFKNAPSLLINMIESAIGREYEIVIPEHDPVIGAVLFAMERVGLRVTEDLYNRLVRNYLREVKK | soluble
14 | MAHHHHHHMAKEVTTNHCNNSKWWKGRPYAKIPDGPAQRQAAVTISAILATAEATRLKHDNLKSTAAQAHSLAITAIKDAFYGKGETEAGDAFAYTKAEKCGRTTATGTAGAAIVEDLICLCTKGGGGQTTECYTSGPADVGKNKVGGVKVIVNDMIDHCPNISAELHLKPALITRRIAAFYAELGRQDGKKQYNKKSKNRGSGCNWMCSARS | not soluble
15 | GSVPATLPQLTPTLVSLLEVIEPEVLYAGYDSSVPDSTWRIMTTLNMLGGRQVIAAVKWAKAIPGFRNLHLDDQMTLLQYSWMYLMAFALGWRSYRQSSANLLCFAPDLIINEQRMTLPGMYDQCKHMLYVSSELHRLQVSYEEYLCMKTLLLLSSVPKDGLKSQELFDEIRMTYIKELGKAIVKREGNSSQNWQRFYQLTKLLDSMHEVVENLLNYCFQTFLDKTMSIEFPEMLAEIITNQIPKYSNGNIKKLLFHQK | soluble
16 | MGFIMLLRSRFLKVIHVRKQLSACSRFAIQTQTRCKSTDASEDEVKHFQELAPTWWDTDGSQRILHKMNLTRLDFVQRTVRNQVKIQNPEIFVPGFNYKEFLPEYVCDNIQREMQESIETNLDKRPEVSVLDVGCGGGILSESLARLKWVKNVQGIDLTRDCIMVAKEHAKKDPMLEGKINYECKALEDVTGQFDIITCMEMLEHVDMPSEILRHCWSRLNPEKGILFLSTINRDLISWFTTIFMGENVLKIVPKGTHHLSKYINSKEILAWFNDNYSGQFRLLDLKGTMYLPYQGWVEHDCSDVGNYFMAIQRLN | not soluble
17 | MSIESSATPTTPNAEALQLNSTEVRILGCLIEKQATNPETYPLTLNALVIACNQKTSRDPVMNLTQGQVGQSLRALEGRGLTRLVMGSRADRWEHKVDKGLELVPAQVILTGLLLLRGPQTVSELLTRSNRMHDFEDSEQVVHQLERLIARGLATLVPRQSGQREDRYMHLIGDPEDLQDLLAARQQAPERGNAASPAATQRLDELEARIAALEERLARLE | not soluble
18 | MTPGFPLPKPDVLSRPFWDFAQRGVLSLQRCRHCGDVHFPAAPVCPACLSEQQEWVPASGRGTLFSWCEFHKGYWDSVASLLPYRVAVIKLNEGPLLISNLVDVADCAALRADAPVEVVFRPVSADINLPVFRLRHAY | not soluble
19 | EYSYQYNLRVEPGVSHQRANIGIDYQGMDWIIGPNYTAEQARIILRLDDQTRYVLQPEKRHYPVRVMNMTEPAILSLWHGDYYLTLGDKVGTNAYAIKVQ | not soluble
20 | MLTMKDVIREGDPILRNVAEEVVIPASEEDTNTLKEMIEFVINSQDPEMAEKYSLRPGIGLAAPQIGISKKMIAVHVTDTDGTLYSHALFNPKIISHSVERTYLQSGEGCLSVDREVPGYVPRYTRITVKATSINGEEVKLRLKGLPAIVFQHEIDHLNGVMFYDHINKENPFAAPDGSKPLER | not soluble
21 | MGSSHHHHHHSSGLVPRGSHMKGDKRRDIRDILLHDETLFRNMNAFDPDYVPENYRYRESQMEALAVCIRPALRNGRPVNAVILGSCATGKTTAIKKIFEMVESTSEGVVCCYINCQLHTTRFGIFSQIYSKIFGHQPPETGVPFSRIYQTIMQHLASEKRALVVALDDINHLFYSKNANKVLYDILRAHEVFEGVRTGVFAVLSDIEFRYALDKNVDSIFIPQEIVFPPYTREEVFNILRDRVRVGFYPGVISDELLERITDHTMDTGDLRYGIDLLRVCGNLAEADASPVIGEEHLERALKSTGPVNLIHTVRTLNENEREFLRILADAGEDMTAGALYELFRESTGSSYSSFNRIIEKLEFLRLIDTRLTGKGVRGNSRILIPRFSREDLRRCPGF | soluble
22 | MGHHHHHHSHMLSPNPLNSRAVEDISSSRTNPYSYAMSTEEARFLTYHMWPLTFLSPSELARAGFYYIGPGDRVACFACGGKLSNWEPKDDAMSEHRRHFPNCPFLENSLETLRFSISNLSMQTHAARMRTFMYW | not soluble
23 | VLASILLSQAAYESNYGSSLLSVKYHNIYSLPARPGQEHIYLKDNVYSKGKWQYQKVDFAVFRDWSSSMSSYLEELRQGRWGESTYKEVAGTTSYKVAAEKLQAAGFNSDPDYTKHLISIIETYNL | not soluble
24 | DRETAPTIKINQITLRYSANQEPVLSGVSADIESGDCVAVIGPNACGKTSLLLSLLGVVEPQAGFIMVNNKNLKQYDPETFREYAGYCPAEPDLFPGTLADNLRIAKPDATDEELIAALKHAGGESLFIALNSNLNIMLENNASNMLSAVEGSYINLARAFLKKSNFIILDEPLANRNPQARKAFSNTILALKGKATIVFSSHDPELIKLADKVIVLDKGSVVYAGPIPEKNSQEMESSNHE | not soluble
